Assay results taken from US20030129724A1 (Harvard, published 2003).

T1: Recombinant FLAG-epitope tagged HDAC6 (human, UniProt Q9UBN7 1-1215)
T1 construct: Full length ORF with C-terminal FLAG tag in pBJ5, expressed in TAg Jurkat cells; also called HDAC6-FLAG; HD6
T1 sequence: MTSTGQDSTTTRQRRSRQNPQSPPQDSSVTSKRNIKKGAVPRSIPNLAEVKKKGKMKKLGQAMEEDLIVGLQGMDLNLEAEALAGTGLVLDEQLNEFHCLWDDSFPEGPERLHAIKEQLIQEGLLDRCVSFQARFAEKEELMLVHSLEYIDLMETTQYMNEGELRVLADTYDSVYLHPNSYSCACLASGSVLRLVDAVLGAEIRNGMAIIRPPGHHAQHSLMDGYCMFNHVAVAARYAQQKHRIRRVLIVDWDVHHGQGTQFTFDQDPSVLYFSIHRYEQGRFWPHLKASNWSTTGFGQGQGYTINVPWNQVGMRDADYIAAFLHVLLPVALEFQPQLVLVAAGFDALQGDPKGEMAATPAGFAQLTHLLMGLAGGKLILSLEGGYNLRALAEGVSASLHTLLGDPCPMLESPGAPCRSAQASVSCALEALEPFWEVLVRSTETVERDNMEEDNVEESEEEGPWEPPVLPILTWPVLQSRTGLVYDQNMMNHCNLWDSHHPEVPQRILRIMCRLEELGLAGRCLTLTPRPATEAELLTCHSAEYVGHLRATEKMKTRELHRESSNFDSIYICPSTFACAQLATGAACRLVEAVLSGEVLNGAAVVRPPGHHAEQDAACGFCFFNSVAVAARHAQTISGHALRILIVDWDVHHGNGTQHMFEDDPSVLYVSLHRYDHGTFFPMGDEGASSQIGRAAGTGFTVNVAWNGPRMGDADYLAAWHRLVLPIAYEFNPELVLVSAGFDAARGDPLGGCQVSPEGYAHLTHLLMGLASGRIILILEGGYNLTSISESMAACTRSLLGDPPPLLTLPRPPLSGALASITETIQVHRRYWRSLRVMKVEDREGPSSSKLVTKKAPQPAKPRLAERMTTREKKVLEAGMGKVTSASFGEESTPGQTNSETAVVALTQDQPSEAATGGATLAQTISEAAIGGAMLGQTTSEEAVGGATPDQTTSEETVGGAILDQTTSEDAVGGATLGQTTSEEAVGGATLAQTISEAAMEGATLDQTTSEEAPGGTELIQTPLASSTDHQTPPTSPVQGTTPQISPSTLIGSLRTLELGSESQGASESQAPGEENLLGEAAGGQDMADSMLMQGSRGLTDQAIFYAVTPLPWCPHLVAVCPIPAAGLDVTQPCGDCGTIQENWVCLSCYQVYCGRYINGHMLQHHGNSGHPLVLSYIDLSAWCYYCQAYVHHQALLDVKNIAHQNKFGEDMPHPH

T2: HDAC3 from calyculin A-treated cells, O15379
T2 chain: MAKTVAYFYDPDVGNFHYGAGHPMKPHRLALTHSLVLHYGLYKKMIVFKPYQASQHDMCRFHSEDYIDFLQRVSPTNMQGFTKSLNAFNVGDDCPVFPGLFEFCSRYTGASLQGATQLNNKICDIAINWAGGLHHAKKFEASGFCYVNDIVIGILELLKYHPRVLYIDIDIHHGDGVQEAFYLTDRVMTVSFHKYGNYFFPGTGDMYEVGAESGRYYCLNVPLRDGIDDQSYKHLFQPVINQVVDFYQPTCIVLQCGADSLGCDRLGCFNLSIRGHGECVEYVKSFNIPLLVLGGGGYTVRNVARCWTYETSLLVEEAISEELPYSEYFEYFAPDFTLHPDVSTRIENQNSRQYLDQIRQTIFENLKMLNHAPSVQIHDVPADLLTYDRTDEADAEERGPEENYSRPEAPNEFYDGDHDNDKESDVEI

T3: mSin3A (UniProt Q96ST3 1-1273)
T3 construct: Endogenous protein detected by Western blot in immunoprecipitates; also called co-repressor mSin3A
T3 sequence (looked up): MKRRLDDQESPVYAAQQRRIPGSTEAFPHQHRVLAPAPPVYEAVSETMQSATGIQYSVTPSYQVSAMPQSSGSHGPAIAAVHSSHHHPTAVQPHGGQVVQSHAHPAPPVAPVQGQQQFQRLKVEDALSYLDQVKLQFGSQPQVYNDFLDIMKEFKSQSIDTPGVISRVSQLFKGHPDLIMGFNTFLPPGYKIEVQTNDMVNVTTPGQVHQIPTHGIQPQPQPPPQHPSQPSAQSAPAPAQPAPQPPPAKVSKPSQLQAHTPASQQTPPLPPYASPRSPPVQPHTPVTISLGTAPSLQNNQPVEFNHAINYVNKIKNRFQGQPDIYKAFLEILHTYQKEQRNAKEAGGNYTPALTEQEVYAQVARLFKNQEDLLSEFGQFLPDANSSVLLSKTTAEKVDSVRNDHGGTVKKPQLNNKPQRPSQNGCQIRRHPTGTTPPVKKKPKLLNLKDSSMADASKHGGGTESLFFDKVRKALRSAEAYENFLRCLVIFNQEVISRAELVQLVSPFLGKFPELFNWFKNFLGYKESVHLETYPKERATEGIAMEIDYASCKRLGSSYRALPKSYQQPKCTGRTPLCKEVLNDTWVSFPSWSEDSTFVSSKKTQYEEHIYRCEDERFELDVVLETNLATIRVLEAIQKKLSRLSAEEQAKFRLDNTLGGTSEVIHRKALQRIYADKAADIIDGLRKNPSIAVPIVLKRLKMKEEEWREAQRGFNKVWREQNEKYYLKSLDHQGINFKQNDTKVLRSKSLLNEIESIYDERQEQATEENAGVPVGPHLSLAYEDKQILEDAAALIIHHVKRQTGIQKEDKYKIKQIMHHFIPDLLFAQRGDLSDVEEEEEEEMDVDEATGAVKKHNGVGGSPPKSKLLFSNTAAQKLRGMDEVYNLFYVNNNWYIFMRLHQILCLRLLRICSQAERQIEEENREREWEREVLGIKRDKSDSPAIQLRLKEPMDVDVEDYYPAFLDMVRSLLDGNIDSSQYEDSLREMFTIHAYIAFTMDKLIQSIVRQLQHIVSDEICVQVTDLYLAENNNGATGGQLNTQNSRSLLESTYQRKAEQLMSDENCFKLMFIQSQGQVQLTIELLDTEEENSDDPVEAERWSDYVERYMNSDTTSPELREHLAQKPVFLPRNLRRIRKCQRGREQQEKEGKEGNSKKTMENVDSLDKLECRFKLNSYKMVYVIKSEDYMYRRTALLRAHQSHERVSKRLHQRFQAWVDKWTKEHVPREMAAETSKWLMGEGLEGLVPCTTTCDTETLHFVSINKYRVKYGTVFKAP

B1: MTA (other, UniProt Q13330 1-715, looked up)
chain: MAANMYRVGDYVYFENSSSNPYLIRRIEELNKTANGNVEAKVVCFYRRRDISSTLIALADKHATLSVCYKAGPGADNGEEGEIEEEMENPEMVDLPEKLKHQLRHRELFLSRQLESLPATHIRGKCSVTLLNETESLKSYLEREDFFFYSLVYDPQQKTLLADKGEIRVGNRYQADITDLLKEGEEDGRDQSRLETQVWEAHNPLTDKQIDQFLVVARSVGTFARALDCSSSVRQPSLHMSAAAASRDITLFHAMDTLHKNIYDISKAISALVPQGGPVLCRDEMEEWSASEANLFEEALEKYGKDFTDIQQDFLPWKSLTSIIEYYYMWKTTDRYVQQKRLKAAEAESKLKQVYIPNYNKPNPNQISVNNVKAGVVNGTGAPGQSPGAGRACESCYTTQSYQWYSWGPPNMQCRLCASCWTYWKKYGGLKMPTRLDGERPGPNRSNMSPHGLPARSSGSPKFAMKTRQAFYLHTTKLTRIARRLCREILRPWHAARHPYLPINSAAIKAECTARLPEASQSPLVLKQAVRKPLEAVLRYLETHPRPPKPDPVKSVSSVLSSLTPAKVAPVINNGSPTILGKRSYEQHNGVDGNMKKRLLMPSRGLANHGQARHMGPSRNLLLNGKSYPTKVRLIRGGSLPPVKRRRMNWIDAPDDVFYMATEETRKIRKLLSSSETKRAARRPYKPIALRQSQALPPRPPPPAPVNDEPIVIED
notes: also called metastasis-associated factors (MTA)
B2: Recombinant FLAG-epitope tagged HDAC4 (enzyme, not shown: small tags and cut ends)
chain: MSSQSHPDGLSGRDQPVELLNPARVNHMPSTVDVATALPLQVAPSAVPMDLRLDHQFSLPVAEPALREQQLQQELLALKQKQQIQRQILIAEFQRQHEQLSRQHEAQLHEHIKQQQEMLAMKHQQELLEHQRKLERHRQEQELEKQHREQKLQQLKNKEKGKESAVASTEVKMKLQEFVLNKKKALAHRNLNHCISSDPRYWYGKTQHSSLDQSSPPQSGVSTSYNHPVLGMYDAKDDFPLRKTASEPNLKLRSRLKQKVAERRSSPLLRRKDGPVVTALKKRPLDVTDSACSSAPGSGPSSPNNSSGSVSAENGIAPAVPSIPAETSLAHRLVAREGSAAPLPLYTSPSLPNITLGLPATGPSAGTAGQQDTERLTLPALQQRLSLFPGTHLTPYLSTSPLERDGGAAHSPLLQHMVLLEQPPAQAPLVTGLGALPLHAQSLVGADRVSPSIHKLRQHRPLGRTQSAPLPQNAQALQHLVIQQQHQQFLEKHKQQFQQQQLQMNKIIPKPSEPARQPESHPEETEEELREHQALLDEPYLDRLPGQKEAHAQAGVQVKQEPIESDEEEAEPPREVEPGQRQPSEQELLFRQQALLLEQQRIHQLRNYQASMEAAGIPVSFGGHRPLSRAQSSPASATFPVSVQEPPTKPRFTTGLVYDTLMLKHQCTCGSSSSHPEHAGRIQSIWSRLQETGLRGKCECIRGRKATLEELQTVHSEAHTLLYGTNPLNRQKLDSKKLLGSLASVFVRLPCGGVGVDSDTIWNEVHSAGAARLAVGCVVELVFKVATGELKNGFAVVRPPGHHAEESTPMGFCYFNSVAVAAKLLQQRLSVSKILIVDWDVHHGNGTQQAFYSDPSVLYMSLHRYDDGNFFPGSGAPDEVGTGPGVGFNVNMAFTGGLDPPMGDAEYLAAFRTVVMPIASEFAPDVVLVSSGFDAVEGHPTPLGGYNLSARCFGYLTKQLMGLAGGRIVLALEGGHDLTAICDASEACVSALLGNELDPLPEKVLQQRPNANAVRSMEKVMEIHSKYWRCLQRTTSTAGRSLIEAQTCENEEAETVTAMASLSVGVKPAEKRPDEEPMEEEPPL
notes: Complete HDAC4 ORF with C-terminal FLAG tag in pBJ5, transiently expressed in TAg Jurkat cells (untreated) and immunoprecipitated with anti-FLAG agarose; also called HDAC4-FLAG; HDAC4-F

Legend:
[1] = target: B2; test: anti-FLAG co-immunoprecipitation from TAg Jurkat cells, Western blot
[2] = target: T1, Recombinant FLAG-epitope tagged HDAC6; test: as above
[3] = target: T2, HDAC3 from calyculin A-treated cells, …
CHD4 = target: T4, CHD4 (UniProt Q14839 1-1912, limits assumed); test: anti-FLAG co-immunoprecipitation from TAg Jurkat cells, Western blot
T4 construct: Endogenous protein detected by Western blot in immunoprecipitates; also called CHD chromodomain protein

mSin3A = target: T3, mSin3A; test: anti-FLAG co-immunoprecipitation from TAg Jurkat cells, Western blot; an unexplained band of lower molecular weight was seen in the mSin3A blot
Excerpt: Immunoprecipitates were probed with -CHD4, -mSin3A, -MTA, -RbAp48, -HDAC1, and -HDAC3 antibodies (FIG. 5B).

T4 sequence (Q14839 whole entry): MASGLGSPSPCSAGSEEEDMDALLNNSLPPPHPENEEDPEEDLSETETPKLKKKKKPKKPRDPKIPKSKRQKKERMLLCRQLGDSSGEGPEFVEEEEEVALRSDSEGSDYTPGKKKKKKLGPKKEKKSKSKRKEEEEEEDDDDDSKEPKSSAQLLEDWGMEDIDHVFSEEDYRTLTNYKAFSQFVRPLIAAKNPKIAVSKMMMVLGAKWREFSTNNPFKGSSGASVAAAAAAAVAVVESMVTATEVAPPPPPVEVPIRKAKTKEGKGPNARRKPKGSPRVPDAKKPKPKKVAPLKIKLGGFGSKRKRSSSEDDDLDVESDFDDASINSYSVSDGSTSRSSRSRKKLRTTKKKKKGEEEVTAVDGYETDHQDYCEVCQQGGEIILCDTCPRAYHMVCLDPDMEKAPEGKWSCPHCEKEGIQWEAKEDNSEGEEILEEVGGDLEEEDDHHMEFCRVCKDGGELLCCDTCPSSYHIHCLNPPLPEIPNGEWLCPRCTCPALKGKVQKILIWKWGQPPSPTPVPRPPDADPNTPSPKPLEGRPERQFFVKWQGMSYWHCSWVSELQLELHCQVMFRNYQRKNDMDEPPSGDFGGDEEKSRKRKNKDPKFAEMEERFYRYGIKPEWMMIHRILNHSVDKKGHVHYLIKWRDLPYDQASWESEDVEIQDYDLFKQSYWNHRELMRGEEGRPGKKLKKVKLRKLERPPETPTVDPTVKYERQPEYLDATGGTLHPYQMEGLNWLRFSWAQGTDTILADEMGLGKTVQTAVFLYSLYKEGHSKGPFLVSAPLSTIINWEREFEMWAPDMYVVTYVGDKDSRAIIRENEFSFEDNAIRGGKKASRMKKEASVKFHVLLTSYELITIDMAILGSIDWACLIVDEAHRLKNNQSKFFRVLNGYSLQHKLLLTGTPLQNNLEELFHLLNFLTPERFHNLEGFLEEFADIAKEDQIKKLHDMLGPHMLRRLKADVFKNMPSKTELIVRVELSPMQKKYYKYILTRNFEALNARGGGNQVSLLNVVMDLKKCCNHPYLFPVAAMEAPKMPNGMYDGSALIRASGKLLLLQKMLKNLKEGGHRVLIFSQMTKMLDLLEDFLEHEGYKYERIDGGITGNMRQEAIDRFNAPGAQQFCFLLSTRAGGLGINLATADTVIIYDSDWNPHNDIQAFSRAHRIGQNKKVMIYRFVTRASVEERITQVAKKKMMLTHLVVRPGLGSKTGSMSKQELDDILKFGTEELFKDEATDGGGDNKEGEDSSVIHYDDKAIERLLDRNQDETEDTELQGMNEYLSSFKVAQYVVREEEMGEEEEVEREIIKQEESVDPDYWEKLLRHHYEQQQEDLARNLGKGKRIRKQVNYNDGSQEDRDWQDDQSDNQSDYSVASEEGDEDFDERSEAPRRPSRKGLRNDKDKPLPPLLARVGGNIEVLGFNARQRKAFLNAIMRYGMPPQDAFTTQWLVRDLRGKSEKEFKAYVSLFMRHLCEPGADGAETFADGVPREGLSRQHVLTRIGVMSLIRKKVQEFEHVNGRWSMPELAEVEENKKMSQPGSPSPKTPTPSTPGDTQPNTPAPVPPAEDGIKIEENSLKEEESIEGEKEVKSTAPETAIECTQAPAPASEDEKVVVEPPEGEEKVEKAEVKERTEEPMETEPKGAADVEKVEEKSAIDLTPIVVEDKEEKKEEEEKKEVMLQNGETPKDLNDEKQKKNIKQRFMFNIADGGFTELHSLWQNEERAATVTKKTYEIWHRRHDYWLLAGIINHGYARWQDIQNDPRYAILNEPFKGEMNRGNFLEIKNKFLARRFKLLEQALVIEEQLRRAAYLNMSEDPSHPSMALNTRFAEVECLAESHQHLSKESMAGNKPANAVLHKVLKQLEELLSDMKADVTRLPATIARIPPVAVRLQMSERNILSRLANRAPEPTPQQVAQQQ

Row | binding result [1] | binding result [2] | binding result (CHD4) | binding result (mSin3A) | Binder | immunoprecipitated HDAC activity (release of 3H-acetic acid) [3]
1 | no binding | no binding | – | – | B1 | –
2 | – | – | no binding | no binding | B2 | dramatic reduction in immunoprecipitated HDAC activity
